Results from patent US20240174753A1 (ANWITA BIOSCIENCES, published 2024).

T1: CD25-Fc fusion protein (UniProt P01589 22-213, limits assumed)
T1 construct: also called IL-2Rα; not shown: Fc part
T1 sequence (looked up): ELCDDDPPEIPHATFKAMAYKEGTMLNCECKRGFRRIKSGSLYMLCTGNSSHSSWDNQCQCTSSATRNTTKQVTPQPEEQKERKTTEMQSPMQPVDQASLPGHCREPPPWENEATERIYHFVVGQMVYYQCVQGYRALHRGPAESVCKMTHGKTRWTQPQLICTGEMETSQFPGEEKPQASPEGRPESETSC

T2: CD122-Fc fusion protein (UniProt P14784 27-240, limits assumed)
T2 construct: also called IL-2Rβ; not shown: Fc part
T2 sequence (looked up): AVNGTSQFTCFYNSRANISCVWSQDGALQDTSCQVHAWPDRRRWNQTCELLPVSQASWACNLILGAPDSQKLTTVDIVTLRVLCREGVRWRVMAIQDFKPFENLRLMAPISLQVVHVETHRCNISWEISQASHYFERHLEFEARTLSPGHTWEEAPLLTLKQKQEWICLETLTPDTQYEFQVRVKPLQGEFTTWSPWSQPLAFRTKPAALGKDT


What was measured:
CD25-Fc fusion protein = biological target: T1, CD25-Fc fusion protein; assay: BLI (Octet RED96); CD25-Fc on AHC biosensor, IL-2 mutein at 400 nM; parameters: unit not given here
Excerpt: (§1) Briefly, an CD25- or CD122-Fc fusion protein was loaded onto an anti-human IgG Fc capture (AHC) biosensor.

CD122-Fc fusion protein = biological target: T2, CD122-Fc fusion protein; assay: BLI (Octet RED96); CD122-Fc on AHC biosensor, IL-2 mutein at 400 nM; parameters: unit not given here
Excerpt: as §1

Binding Response (CD25-Fc fusion protein)	Binding Response (CD122-Fc fusion protein)	Binder
< 0.05	> 0.5	IL-2-IL-15 Chimera 1 (C125S) (ligand, Column headed 'Fusion Protein'; no fusion partner is stated for the assay) APTSSSTKKTQLQLEHLLLDLQMILNGIQSMEIDATTFKFYMPKKATELKHLQCLEEELKPLEEVLNLAQSKNFHLRPRDLISNINVIVLELKGSETTFMCEYADETATIVEFLNRWITFSQSIISTLT
< 0.05	> 0.5	IL-2-IL-15 Chimera 5 (E15K, C125S) (ligand, Column headed 'Fusion Protein'; no fusion partner is stated for the assay) APTSSSTKKTQLQLKHLLLDLQMILNGIQSMEIDATTFKFYMPKKATELKHLQCLEEELKPLEEVLNLAQSKNFHLRPRDLISNINVIVLELKGSETTFMCEYADETATIVEFLNRWITFSQSIISTLT
< 0.05	< 0.1	IL-2-IL-15 Chimera 35 (I92E, C125S) (ligand, No fusion partner is stated for the assay; also called IL-2-IL-15 Chimera 29 (I92E, C125S)) APTSSSTKKTQLQLEHLLLDLQMILNGIQSMEIDATTFKFYMPKKATELKHLQCLEEELKPLEEVLNLAQSKNFHLRPRDLISNINVEVLELKGSETTFMCEYADETATIVEFLNRWITFSQSIISTLT
< 0.05	< 0.1	IL-2-IL-15 Chimera 17 (H16V, C125S) (ligand, Column headed 'Fusion Protein'; no fusion partner is stated for the assay) APTSSSTKKTQLQLEVLLLDLQMILNGIQSMEIDATTFKFYMPKKATELKHLQCLEEELKPLEEVLNLAQSKNFHLRPRDLISNINVIVLELKGSETTFMCEYADETATIVEFLNRWITFSQSIISTLT
< 0.05	< 0.1	IL-2-IL-15 Chimera 29 (I92A, C125S) (ligand, Column headed 'Fusion Protein'; no fusion partner is stated for the assay) APTSSSTKKTQLQLEHLLLDLQMILNGIQSMEIDATTFKFYMPKKATELKHLQCLEEELKPLEEVLNLAQSKNFHLRPRDLISNINVAVLELKGSETTFMCEYADETATIVEFLNRWITFSQSIISTLT
< 0.05	< 0.1	IL-2-IL-15 Chimera 15 (H16I, C125S) (ligand, Column headed 'Fusion Protein'; no fusion partner is stated for the assay) APTSSSTKKTQLQLEILLLDLQMILNGIQSMEIDATTFKFYMPKKATELKHLQCLEEELKPLEEVLNLAQSKNFHLRPRDLISNINVIVLELKGSETTFMCEYADETATIVEFLNRWITFSQSIISTLT
< 0.05	< 0.2	IL-2-IL-15 Chimera 11 (H16E, C125S) (ligand, Column headed 'Fusion Protein'; no fusion partner is stated for the assay) APTSSSTKKTQLQLEELLLDLQMILNGIQSMEIDATTFKFYMPKKATELKHLQCLEEELKPLEEVLNLAQSKNFHLRPRDLISNINVIVLELKGSETTFMCEYADETATIVEFLNRWITFSQSIISTLT
< 0.05	< 0.1	IL-2-IL-15 Chimera 27 (N88A, C125S) (ligand, Column headed 'Fusion Protein'; no fusion partner is stated for the assay) APTSSSTKKTQLQLEHLLLDLQMILNGIQSMEIDATTFKFYMPKKATELKHLQCLEEELKPLEEVLNLAQSKNFHLRPRDLISAINVIVLELKGSETTFMCEYADETATIVEFLNRWITFSQSIISTLT
< 0.05	< 0.1	IL-2-IL-15 Chimera 21 (D20A, C125S) (ligand, Column headed 'Fusion Protein'; no fusion partner is stated for the assay) APTSSSTKKTQLQLEHLLLALQMILNGIQSMEIDATTFKFYMPKKATELKHLQCLEEELKPLEEVLNLAQSKNFHLRPRDLISNINVIVLELKGSETTFMCEYADETATIVEFLNRWITFSQSIISTLT
< 0.05	< 0.1	IL-2-IL-15 Chimera 23 (D20E, C125S) (ligand, Column headed 'Fusion Protein'; no fusion partner is stated for the assay) APTSSSTKKTQLQLEHLLLELQMILNGIQSMEIDATTFKFYMPKKATELKHLQCLEEELKPLEEVLNLAQSKNFHLRPRDLISNINVIVLELKGSETTFMCEYADETATIVEFLNRWITFSQSIISTLT
< 0.05	< 0.2	IL-2-IL-15 Chimera 31 (I92G, C125S) (ligand, No fusion partner is stated for the assay; also called IL-2-IL-15 Chimera 29 (I92G, C125S)) APTSSSTKKTQLQLEHLLLDLQMILNGIQSMEIDATTFKFYMPKKATELKHLQCLEEELKPLEEVLNLAQSKNFHLRPRDLISNINVGVLELKGSETTFMCEYADETATIVEFLNRWITFSQSIISTLT
< 0.05	< 0.1	IL-2-IL-15 Chimera 19 (D20T, C125S) (ligand, Column headed 'Fusion Protein'; no fusion partner is stated for the assay) APTSSSTKKTQLQLEHLLLTLQMILNGIQSMEIDATTFKFYMPKKATELKHLQCLEEELKPLEEVLNLAQSKNFHLRPRDLISNINVIVLELKGSETTFMCEYADETATIVEFLNRWITFSQSIISTLT
< 0.05	< 0.1	IL-2-IL-15 Chimera 25 (D20K, C125S) (ligand, Column headed 'Fusion Protein'; no fusion partner is stated for the assay) APTSSSTKKTQLQLEHLLLKLQMILNGIQSMEIDATTFKFYMPKKATELKHLQCLEEELKPLEEVLNLAQSKNFHLRPRDLISNINVIVLELKGSETTFMCEYADETATIVEFLNRWITFSQSIISTLT
< 0.05	< 0.1	IL-2-IL-15 Chimera 33 (I92D, C125S) (ligand, No fusion partner is stated for the assay; also called IL-2-IL-15 Chimera 29 (I92D, C125S)) APTSSSTKKTQLQLEHLLLDLQMILNGIQSMEIDATTFKFYMPKKATELKHLQCLEEELKPLEEVLNLAQSKNFHLRPRDLISNINVDVLELKGSETTFMCEYADETATIVEFLNRWITFSQSIISTLT
< 0.05	> 0.5	hIL-2 Mutein (K32E, F42C, V69C, C125S) (ligand, The description says F42C and V69C form a disulfide bond; Column headed 'Fusion Protein'; no fusion partner is stated for the assay) APTSSSTKKTQLQLEHLLLDLQMILNGINNYENPKLTRMLTCKFYMPKKATELKHLQCLEEELKPLEECLNLAQSKNFHLRPRDLISNINVIVLELKGSETTFMCEYADETATIVEFLNRWITFSQSIISTLT
< 0.05	> 0.5	hIL-2 Mutein (K32E, R38E, F42K, C125S) (ligand, Column headed 'Fusion Protein'; no fusion partner is stated for the assay) APTSSSTKKTQLQLEHLLLDLQMILNGINNYENPKLTEMLTKKFYMPKKATELKHLQCLEEELKPLEEVLNLAQSKNFHLRPRDLISNINVIVLELKGSETTFMCEYADETATIVEFLNRWITFSQSIISTLT
< 0.05	> 0.5	hIL-2 Mutein (R38N, L40T, C125S) (ligand, Column headed 'Fusion Protein'; no fusion partner is stated for the assay) APTSSSTKKTQLQLEHLLLDLQMILNGINNYKNPKLTNMTTFKFYMPKKATELKHLQCLEEELKPLEEVLNLAQSKNFHLRPRDLISNINVIVLELKGSETTFMCEYADETATIVEFLNRWITFSQSIISTLT
